20 molecules from patent US9266930 can be followed below.

Read-outs that look alike come from different tables or passages of the source.

The target of experiment [1] is HLA-DR1 (DRB1*0101) (human). The experiment is described as follows: competition with 125I-labeled probe peptide on purified HLA-DR, gel filtration.
Experiment [2] concerns the target HLA-DR2w2β2 (DRB5*0101) (human). Described as above.
In experiment [3] the target is HLA-DR5w11 (DRB1*1101) (human). The description is as above.
Experiment [4] deals with T1, HLA-DR4w4 (DRB1*0401) (human).
T1 chain 1: not shown
T1 chain 2: not shown
The experiment is described as above.

For experiment [5], the target named is HLA-DR4w15 (DRB1*0405) (human). Described as above.
In a further experiment the target is HLA-B*5401 (human). As to the kind of experiment: competition with 125I probe peptide for purified HLA, gel filtration.
For experiment [6], the target named is HLA-B*0702 (human). Described as above.
Experiment [7] concerns the target HLA-A*1101 (human). The experiment is described as follows: competition with 125I-labelled standard peptide for purified HLA, gel filtration.
The target of experiment [8] is HLA-A*0301 (human). Described as above.
Experiment [9] has as its target HLA-A*3301 (human). The experiment is described as above.
The target of experiment [10] is HLA-A*3101 (human). Described as above.
The target in experiment [11] is T2, HLA-DR3 (DRB1*0301) (human).
T2 chain 1: not shown
T2 chain 2: not shown

Experiment [12] deals with T3, HLA-DR6w19 (DRB1*1302) (human).
T3 chain 1: not shown
T3 chain 2: not shown

Experiment [13] deals with T4, HLA-DR1 (DRB1*0101) (human).
T4 chain 1: not shown
T4 chain 2: not shown

For the next experiment, the target named is HLA-B*3501 (human). The experiment is described as follows: competition with 125I probe peptide for purified HLA, gel filtration.
In experiment [14] the target is HLA-A*2401 (as the column head of Table X prints it), purified HLA class I molecule (human). The experiment is described as follows: competition with 125I-labelled standard peptide for purified HLA, gel filtration.
In experiment [15] the target is HLA-B*0702 (Human).
In experiment [16] the target is HLA-A*6801 (human).
For experiment [17], the target named is HLA-A*3101 (human).
In experiment [18] the target is HLA-A*1101 (human). As to the kind of experiment: competition with 125I-labeled probe peptide for purified HLA, gel filtration.
Experiment [19] concerns the target HLA-A*0301 (human). Described as above.
The target of experiment [20] is HLA-A*3301 (human). The experiment is described as above.
In experiment [21] the target is HLA-A*6801 (human). The description is as above.
The target of experiment [22] is HLA-A*3101 (human). Described as above.
The target of experiment [23] is HLA-A*1101 (Human). The experiment is described as follows: competition with 125I-labelled probe peptide for purified HLA-A*1101.
The target in experiment [24] is T5, HLA-DR2w2β2 (DRB5*0101) (human).
T5 chain 1: not shown
T5 chain 2: not shown
As to the kind of experiment: inhibition of 125I-probe peptide binding to purified HLA-DR, gel filtration.

Experiment [25] concerns the target T6, HLA-DR4w15 (DRB1*0405) (human).
T6 chain 1: not shown
T6 chain 2: not shown
Described as above.

Experiment [26] addresses T2, HLA-DR3 (DRB1*0301) (human). Described as above.
The target in experiment [27] is T7, HLA-DR5w11 (DRB1*1101) (human).
T7 chain 1: not shown
T7 chain 2: not shown
The experiment is described as above.

For experiment [28], the target named is T8, HLA-DR2w2β1 (DRB1*1501) (human).
T8 chain 1: not shown
T8 chain 2: not shown
The description is as above.

The target of experiment [29] is T4, HLA-DR1 (DRB1*0101) (human). The description is as above.
The target in experiment [30] is T1, HLA-DR4w4 (DRB1*0401) (human). The description is as above.
Experiment [31] addresses HLA-A*1101 (human).
Experiment [32] addresses HLA-A*0301 (human).
Experiment [33] has as its target T5, HLA-DR2w2β2 (DRB5*0101) (human).
Experiment [34] addresses T6, HLA-DR4w15 (DRB1*0405) (human).
Experiment [35] concerns the target T2, HLA-DR3 (DRB1*0301) (human).
For experiment [36], the target named is T7, HLA-DR5w11 (DRB1*1101) (human).
Experiment [37] addresses T8, HLA-DR2w2β1 (DRB1*1501) (human).
Experiment [38] addresses T4, HLA-DR1 (DRB1*0101) (human).
For experiment [39], the target named is T1, HLA-DR4w4 (DRB1*0401) (human).
The target in a further experiment is HLA-A*0203 (human). As to the kind of experiment: competition with 125I probe peptide for purified HLA, gel filtration.
Another experiment has as its target HLA-A*6802 (human). The experiment is described as above.
Experiment [40] addresses HLA-A*6801 (human). As to the kind of experiment: competition with 125I-labelled standard peptide for purified HLA, gel filtration.
The target of experiment [41] is T9, HLA-DR5w12 (DRB1*1201) (human).
T9 chain 1: not shown
T9 chain 2: not shown

The target of experiment [42] is T10, HLA-DR7 (DRB1*0701) (human).
T10 chain 1: not shown
T10 chain 2: not shown

In experiment [43] the target is T11, HLA-DR9 (DRB1*0901) (human).
T11 chain 1: not shown
T11 chain 2: not shown

The target in experiment [44] is T3, HLA-DR6w19 (DRB1*1302) (human).

On to SCGVWDEWSPCSVTC (modifications not checked), for which the binding affinity ratio (IC50 standard peptide / IC50 test peptide) in experiment [1] was 0.0001; in experiment [2] it was -0.0005; in [3], -0.0002; in experiment [4], -0.0009; in [5], -0.0009.

On to TPYAGEPAPF (modifications not checked) [1167.61], for which the IC50 amounted to 25000 nM with HLA-B*5401 (human) and 31 nM in the experiment with HLA-B*0702 (human) [6].

As to QSQDNNGNR (modifications not checked), the binding affinity ratio (IC50 of standard peptide / IC50 of test peptide) with HLA-A*1101 (human) [7] stood at 0.0002; with HLA-A*0301 (human) [8] it was 0.0005; with HLA-A*3301 (human) [9], 0.0093; with HLA-A*3101 (human) [10] it was 0.002.

Turning to KCNLYADSAWENVKN (modifications not checked) [35.0172 … (Pf SSP2 211)], the concentration for half-maximal inhibition (IC50) is 857 nM in experiment [11], 11100 nM in experiment [12] and 23400 nM in experiment [13].

On to LPYGRTNL (modifications not checked) [19.0051], for which, in the experiment with HLA-B*3501 (human), the IC50 was greater than 30000 nM.

In the case of PYAGEPAPF (modifications not checked) [… (Pf SSP2 position 528, 9-mer)], the binding affinity ratio (IC50 of standard peptide / IC50 of test peptide) in experiment [14] amounted to 0.037.

Take NPEDDREENF (modifications not checked) [… (P. falciparum SSP2, position 382)]: the binding affinity ratio (IC50 of standard peptide / IC50 of test peptide) with HLA-B*0702 (Human) [15] was found to be 0.0001.

NANANNAVK (modifications not checked) [… (P. falciparum CSP, position 335)]: the binding affinity ratio (IC50 of standard peptide / IC50 of test peptide) with HLA-A*6801 (human) [16] was 0.021; with HLA-A*3101 (human) [17], 0.0006.

Take LALFFIIFNK (modifications not checked) [… (P. falciparum EXP, position 9, 10 amino acids)]: the binding affinity ratio (relative to standard peptide) with HLA-A*1101 (human) [18] is 0.053; with HLA-A*0301 (human) [19], 0.014; in the experiment with HLA-A*3301 (human) [20], 0.0076; with HLA-A*6801 (human) [21], 0.0039; with HLA-A*3101 (human) [22], 0.0072.

Consider EALFQEYQCY (modifications not checked) [… (Pf CSP 17, A11 motif peptide)], for which the binding affinity ratio (IC50 of standard peptide / IC50 of test peptide) with HLA-A*1101 (Human) [23] was determined as 0.0002.

As for RHPFKIGSSDPADNA (modifications not checked), the binding affinity ratio (relative binding) (ratio to standard peptide) in experiment [24] was -0.0005; in [25] it was 0.0029; in experiment [26], -0.0008; in [27] it was 0.0056; in experiment [28] it was -0.0004; in experiment [29], 0.0044. The binding affinity ratio (relative binding) (ratio to standard peptide) in experiment [30] was 0.47.

As for KYLVIVFLIF (modifications not checked) [… (Pf SSP2 position 8, 10-mer)], in experiment [14], the binding affinity ratio (IC50 of standard peptide / IC50 of test peptide) is 0.0003.

On to NLPNDKSDR (modifications not checked) [… (P. falciparum SSP2, position 406, 9 amino acids)], for which the binding affinity ratio (relative to standard peptide) in the experiment with HLA-A*1101 (human) [31] is 0.0002; with HLA-A*0301 (human) [32] it was 0.0005.

As for VFFLALFFIIFNKES (modifications not checked), the binding affinity ratio (relative binding) (ratio to standard peptide) in [33] is -0.0021; in experiment [34], 0.01; in experiment [35] it was -0.0043; in [36], -0.0005; in experiment [37] it was 0.018; in experiment [38], 0.0006. Also, the binding affinity ratio (relative binding) (ratio to standard peptide) in experiment [39] came out at 0.0047.

For the molecule EDNEKLRKPK (modifications not checked) [… (Pf CSP 100, A11 motif peptide)], in the experiment with HLA-A*1101 (Human) [23], the binding affinity ratio (IC50 of standard peptide / IC50 of test peptide) is 0.0002.

For the molecule ILSVSSFLFV (modifications not checked) [1167.18], the values for the half-inhibitory concentration (IC50) with HLA-A*0203 (human) and in the experiment with HLA-A*6802 (human) were 19 nM and 2100 nM, respectively.

As to VPLAMKLI (modifications not checked) [VPLAMKLI (P. falciparum SSP2, position 69)], the binding affinity ratio (IC50 of standard peptide / IC50 of test peptide) with HLA-B*0702 (Human) [15] worked out at 0.0001.

As to VSSKKKNKK (modifications not checked) [… (P. falciparum EXP, position 33, 9 amino acids)], the binding affinity ratio (relative to standard peptide) in the experiment with HLA-A*1101 (human) [18] (scale: ratio) came out at 0.0002; in the experiment with HLA-A*0301 (human) [19] (scale: ratio), 0.0001; in the experiment with HLA-A*3301 (human) [20] (scale: ratio) it was 0.001; with HLA-A*6801 (human) [21] (scale: ratio), 0.0002.

In the case of YADSAWENVK (modifications not checked), the binding affinity ratio (IC50 of standard peptide / IC50 of test peptide) in the experiment with HLA-A*1101 (human) [7] came to 0.0002; with HLA-A*3301 (human) [9] it was 0.0009; with HLA-A*6801 (human) [40], 0.0077; in the experiment with HLA-A*3101 (human) [10] it was 0.0009.

Take VFNVVNSSIGLIMVL (modifications not checked) [… (Pf CSP DR-supermotif 15-mer, core …)]: the binding affinity ratio (relative to standard peptide) was determined as 0.0015 in [41], 0.18 in experiment [42], 0.5 in [43] and 0.26 in experiment [44].
